What was measured:
[1] = biological target: yeast single-chain H2A.Z-H2B (yeast); assay: ITC; MicroCal VP-ITC, 25°C, 20 mM MES (pH 6.0), 0.5 M NaCl; chaperone (50 or 150 μM) injected into histones (5 μM scZB or 15 μM scAB and mutants) in the cell; one-site fit
[2] = biological target: yeast single-chain H2A.Z-H2B (yeast); assay: ITC; 0.2 M NaCl (Table 1); Swc2-Z or Chz1-M injected into single-chain histone dimers; otherwise as the ITC methods (25°C, 20 mM MES pH 6.0)
[3] = biological target: single chain H2A-H2B with H2A P50A/N91G (yeast); assay: ITC; MicroCal VP-ITC, 25°C, 20 mM MES (pH 6.0), 0.5 M NaCl; chaperone (50 or 150 μM) injected into histones (5 μM scZB or 15 μM scAB and mutants) in the cell; one-site fit
[4] = biological target: single-chain H2A.Z-H2B with H2A.Z A57P (yeast); assay: as above
[5] = biological target: single-chain H2A.Z-H2B with H2A.Z A57P/G98N (yeast); assay: as above
[6] = biological target: single-chain H2A.Z-H2B with H2A.Z G98N (yeast); assay: as above
[7] = biological target: single-chain H2A.Z-H2B with H2A.Z RA→GNV (yeast); assay: as above
[8] = biological target: single-chain H2A.Z-H2B with H2B Y45A/M62A (yeast); assay: as above

Kd [1] [nM] | stoichiometry N [1] [sites] | Kd [2] [nM] | stoichiometry N [2] [sites] | Kd [3] [nM] | stoichiometry N [3] [sites] | Kd [4] [nM] | stoichiometry N [4] [sites] | Kd [5] [nM] | stoichiometry N [5] [sites] | Kd [6] [nM] | stoichiometry N [6] [sites] | Kd [7] [nM] | stoichiometry N [7] [sites] | Kd [8] [nM] | stoichiometry N [8] [sites] | Binder
130 | 1 | – | – | – | – | – | – | – | – | – | – | – | – | – | – | full-length Chz1 (natural protein) MSDEAKEKRELESQKESSHNKSEKSVEPKPKRRRRRNYDDYDAEVAKEETKAKNGLTKSENNGTVEDSESDMDDAKLDALMGNEGEEEEDDLAEIDTSNIITSGRRTRGKVIDYKKTAEELDKKEPSTGSKDDVGYGEKEEDDEDEEDDDFKE
1060 | 1 | 20 | 1 | – | – | – | – | – | – | – | – | – | – | – | – | middle region of Chz1 (Chz1 64-124) (domain or fragment) TVEDSESDMDDAKLDALMGNEGEEEEDDLAEIDTSNIITSGRRTRGKVIDYKKTAEELDKK
120 | 0.9 | – | – | 160 | 1.1 | 740 | 1 | 3390 | 1.1 | 970 | 0.9 | 190 | 1 | 1120 | 0.8 | middle and C-terminal region of Chz1 (Chz1 64-153) (domain or fragment) TVEDSESDMDDAKLDALMGNEGEEEEDDLAEIDTSNIITSGRRTRGKVIDYKKTAEELDKKEPSTGSKDDVGYGEKEEDDEDEEDDDFKE

— article PMC6544321
